The source of these data is publication PMC9882985 (Science Advances, 2023).

Usually stoichiometry N stands for the number of molecules, sites or subunits per partner or assembly.

For data set [1], the target named is PSME3 WT-dTomato with SUMO1 conjugation, P61289;P63165. Put plainly: FRET. The following applies: in vitro; PSME3-dTomato conjugated with SUMO1 (lane 6); n = 3; parent: est. 55; read off a plot.
In data set [2] the target is PSME3 WT-dTomato with SUMO2 conjugation, P61289;P61956. Kind of data set: FRET. The following applies: in vitro; PSME3-dTomato conjugated with SUMO2 (lane 7); n = 3; parent: est. 21; read off a plot.
Data set [3] has as its target PSME3 WT-dTomato with SUMO3 conjugation, P61289;P55854. Put plainly: FRET. The note with it: in vitro; PSME3-dTomato conjugated with SUMO3 (lane 8); n = 3; parent: est. 24; read off a plot.
Data set [4] concerns the target eYFP-CP2c WT with SUMO2 conjugation. Kind of data set: FRET. The following applies: in vitro, n = 3, parent: est. 13, read off a plot.
Data set [5] has as its target eYFP-CP2c WT with SUMO3 conjugation. Put plainly: FRET. The note with it: in vitro; eYFP-CP2c conjugated with SUMO3 (lane 12); n = 3; parent: est. 13; read off a plot.
The target of data set [6] is eYFP-CP2c WT with SUMO conjugation (SUMO1), Q9ERA0;P63165. Put plainly: FRET. The note with it: in vitro; eYFP-CP2c conjugated with SUMO1 (lane 6); n = 3; parent: est. 75; read off a plot.
Data set [7] deals with the molecule itself. Kind of data set: cross-linking + co-IP; DSP XL-IP: live transfected cells crosslinked with 2 mM DSP in PBS 3 hours on ice, lysed, immunoprecipitated, Western blot with or without DTT; cells arrested at G2-M with MG132 (Fig. 4G). In general terms: A western blot detects proteins with antibodies after separation by electrophoresis.

On to “eYFP-CP2c WT (non-SUMOylated) (from UniProt Q9ERA0) SIM m158: VGVID→KGKID”, for which the response in data set [1] is 7%; in data set [2] it was 9%; in data set [3], 12%.

With “PSME3 WT-dTomato (non-SUMOylated) (from UniProt P61289) K6R; K12R; K14R; K110R; K123R; K243R”, the response amounted to 9% in data set [4] (eYFP-CP2c conjugated with SUMO2 (lane 11)) and 7% in data set [5].

In the case of “PSME3 WT-dTomato (non-SUMOylated) (from UniProt P61289) SIM m70 (ILLTN→IRRTN) + SIM m115 (LVDII→RKDII)”, the figures for the response in data set [6] and in data set [4] (eYFP-CP2c conjugated with SUMO2 (lane 7)) were 11% and 16%, respectively.

B1: Flag-tagged CP2c WT (natural protein, mouse, UniProt Q9ERA0 1-502, looked up)
chain: MAWALKLPLADEVIESGLVQDFDASLSGIGQELGAGAYSMSDVLALPIFKQEESSLPPDNENEILPFQYVLCAATSPAVKLHDETLTYLNQGQSYEIRMLDNRKLGELPELNGKLVKSIFRVVFHDRRLQYTEHQQLEGWRWNRPGDRILDIDIPMSVGVIDPRANPTQLNTVEFLWDPSKRTSVFIQVHCISTEFTMRKHGGEKGVPFRVQIDTFKENGNGEYTEHLHSASCQIKVFKPKGADRKQKIDREKMEKRTPHEKEKYQPSYETTILTECSPWPEITYVNNSPSPGFNSSHSSFSLGEGNGSPNHQPEPPPPVTDNLLPTTTPQEAQQWLHRNRFSTFTRLFTNFSGADLLKLTRDDVIQICGPADGIRLFNALKGRMVRPRLTIYVCQESLQLREQQPQPQPQPQKQEDGDSNGTFFVYHAIYLEELTAVELTEKIAQLFSISPHQISQIYKQGPTGIHVVISDEMVQNFQEEACFILDTMEAETSDSYHVILK
notes: CP2c (Tfcp2), mouse cDNA, in pcDNA3-Flag; In cells part of it is SUMO1-conjugated at K50; also called Flag-CP2c; source: 293T, transfected, in lysate
Turning to B1, the “stoichiometry N” value in data set [7] is 2.
